Experimental data taken from paper PMC7603204.
Positions count from the first letter of the chain named. Names may count otherwise.

B1: E. coli AlaRS (Escherichia coli K-12; C666A/D551Y) (protein)
chain: SKSTAEIRQAFLDFFHSKGHQVVASSSLVPHNDPTLLFTNAGMNQFKDVFLGLDKRNYSRATTSQRCVRAGGKHNDLENVGYTARHHTFFEMLGNFSFGDYFKHDAIQFAWELLTSEKWFALPKERLWVTVYESDDEAYEIWEKEVGIPRERIIRIGDNKGAPYASDNFWQMGDTGPCGPCTEIFYDHGDHIWGGPPGSPEEDGDRYIEIWNIVFMQFNRQADGTMEPLPKPSVDTGMGLERIAAVLQHVNSNYDIDLFRTLIQAVAKVTGATDLSNKSLRVIADHIRSCAFLIADGVMPSNENRGYVLRRIIRRAVRHGNMLGAKETFFYKLVGPLIDVMGSAGEDLKRQQAQVEQVLKTEEEQFARTLERGLALLDEELAKLSGDTLDGETAFRLYDTYGFPVDLTADVCRERNIKVDEAGFEAAMEEQRRRAREASGFGADYNAMIRVDSASEFKGYDHLELNGKVTALFVDGKAVDAINAGQEAVVVLDQTPFYAESGGQVGDKGELKGANFSFAVEDTQKYGQAIGHIGKLAAGSLKVGDAVQAYVDEARRARIRLNHSATHLMHAALRQVLGTHVSQKGSLVNDKVLRFDFSHNEAMKPEEIRAVEDLVNTQIRRNLPIETNIMDLEAAKAKGAMALFGEKYDERVRVLSMGDFSTELAGGTHASRTGDIGLFRIISESGTAAGVRRIEAVTGEGAIATVHADSDRLSEVAHLLKGDSNNLADKVRSVLERTRQLEKELQQLKEQAAAQESANLSSKAIDVNGVKLLVSELSGVEPKMLRTMVDDLKNQLGSTIIVLATVVEGKVSLIAGVSKDVTDRVKAGELIGMVAQQVGGKGGGRPDMAQAGGTDAAALPAALASVKGWVSAKLQ
B2: E. coli AlaRS (Escherichia coli K-12; R561C) (protein)
chain: B1 chain with Y550D, R560C, A665C

Substrate: C[C@H](N)C(=O)O
Assay: purified protein
Conditions: 2 mM ATP, 2 mM PPi, 10 mM MgCl2, 30 mM KCl, 2 mM NaF, pH 7.2, 37 °C, amino acid activation

Row | Protein | Km [µM] | kcat [s⁻¹] | kcat/Km [M⁻¹ s⁻¹]
1 | B1 | 217 ± 100 | 18.3 | 84300
2 | B2 | 203 ± 68 | 21.8 | 107000
